# Laboratory results from publication PMC12102759 (2025).
# B1: RNF115 peptide 69-84 (E3 ubiquitin-protein ligase RNF115), 16-mer library wild type / MDM2 SWIB (MDM2 SWIB/MDM2 domain, residues 17-125) (parent complex)
# chain 1: THFAELWGHLDHTMFF
# chain 2: SQIPASEQETLVRPKPLLLKLLKSVGAQKDTYTMKEVLFYLGQYIMTKRLYDEKQQHIVYCSNDLLGDLFGVPSFSVKEHRKIYTMIYRNLVVVNQQESSDSGTSVSEN
# Variants of: B1
# Assay: proteomic peptide phage display deep mutational scan (ProP-PD DMS): M13 P8 16-mer library selected against immobilised GST-tagged bait for four days (rounds), NGS of the eluted pools per day and pseudo-replica; bait immobilised on MaxiSorp plates (10 µg), library pre-cleared on GST, 2 h binding at 4 °C, five washes; one round per day, days 1-4; value from days 2 and 3
row,Variant,screen value
1,chain 1 F15D,"0.00754 average fractional NGS count over selection days 2 and 3 (reads of this peptide / all reads for the bait, averaged over …"
2,chain 1 E5N,"0.000269 average fractional NGS count over selection days 2 and 3 (reads of this peptide / all reads for the bait, averaged over …"
3,chain 1 L10F,"0.00105 average fractional NGS count over selection days 2 and 3 (reads of this peptide / all reads for the bait, averaged over …"
4,chain 1 G8R,"0.000199 average fractional NGS count over selection days 2 and 3 (reads of this peptide / all reads for the bait, averaged over …"
5,chain 1 H12G,"0.0011 average fractional NGS count over selection days 2 and 3 (reads of this peptide / all reads for the bait, averaged over …"
6,chain 1 A4V,"0.000584 average fractional NGS count over selection days 2 and 3 (reads of this peptide / all reads for the bait, averaged over …"
7,chain 1 G8M,"0.00018 average fractional NGS count over selection days 2 and 3 (reads of this peptide / all reads for the bait, averaged over …"
8,chain 1 H12Q,"0.000843 average fractional NGS count over selection days 2 and 3 (reads of this peptide / all reads for the bait, averaged over …"
9,chain 1 T13V,"0.0019 average fractional NGS count over selection days 2 and 3 (reads of this peptide / all reads for the bait, averaged over …"
10,chain 1 H9R,"0.00234 average fractional NGS count over selection days 2 and 3 (reads of this peptide / all reads for the bait, averaged over …"
11,chain 1 H9G,"0.00212 average fractional NGS count over selection days 2 and 3 (reads of this peptide / all reads for the bait, averaged over …"
12,chain 1 H2A,"0.000678 average fractional NGS count over selection days 2 and 3 (reads of this peptide / all reads for the bait, averaged over …"
13,chain 1 G8H,"0.00286 average fractional NGS count over selection days 2 and 3 (reads of this peptide / all reads for the bait, averaged over …"
14,chain 1 T1M,"0.0023 average fractional NGS count over selection days 2 and 3 (reads of this peptide / all reads for the bait, averaged over …"
15,chain 1 G8W,"0.000927 average fractional NGS count over selection days 2 and 3 (reads of this peptide / all reads for the bait, averaged over …"
16,chain 1 F15W,"0.00256 average fractional NGS count over selection days 2 and 3 (reads of this peptide / all reads for the bait, averaged over …"
17,chain 1 L6A,"0.00179 average fractional NGS count over selection days 2 and 3 (reads of this peptide / all reads for the bait, averaged over …"
18,chain 1 H12D,"0.00032 average fractional NGS count over selection days 2 and 3 (reads of this peptide / all reads for the bait, averaged over …"
19,chain 1 A4F,"0.000182 average fractional NGS count over selection days 2 and 3 (reads of this peptide / all reads for the bait, averaged over …"
20,chain 1 H12M,"0.00543 average fractional NGS count over selection days 2 and 3 (reads of this peptide / all reads for the bait, averaged over …"
21,chain 1 L10V,"0.000492 average fractional NGS count over selection days 2 and 3 (reads of this peptide / all reads for the bait, averaged over …"
22,chain 1 H9T,"0.00161 average fractional NGS count over selection days 2 and 3 (reads of this peptide / all reads for the bait, averaged over …"
23,chain 1 H2N,"0.000593 average fractional NGS count over selection days 2 and 3 (reads of this peptide / all reads for the bait, averaged over …"
24,chain 1 D11A,"0.0112 average fractional NGS count over selection days 2 and 3 (reads of this peptide / all reads for the bait, averaged over …"

row,Variant,screen value
1,chain 1 G8A,"0.000308 average fractional NGS count over selection days 2 and 3 (reads of this peptide / all reads for the bait, averaged over …"
2,chain 1 M14Q,"0.000925 average fractional NGS count over selection days 2 and 3 (reads of this peptide / all reads for the bait, averaged over …"
3,chain 1 H2R,"0.000186 average fractional NGS count over selection days 2 and 3 (reads of this peptide / all reads for the bait, averaged over …"
4,chain 1 F3T,"9.19e-05 average fractional NGS count over selection days 2 and 3 (reads of this peptide / all reads for the bait, averaged over …"
5,chain 1 T13H,"0.00485 average fractional NGS count over selection days 2 and 3 (reads of this peptide / all reads for the bait, averaged over …"
6,chain 1 F15Y,"0.00151 average fractional NGS count over selection days 2 and 3 (reads of this peptide / all reads for the bait, averaged over …"
7,chain 1 D11P,"0.000507 average fractional NGS count over selection days 2 and 3 (reads of this peptide / all reads for the bait, averaged over …"
8,chain 1 D11E,"0.000686 average fractional NGS count over selection days 2 and 3 (reads of this peptide / all reads for the bait, averaged over …"
9,chain 1 H9N,"0.00523 average fractional NGS count over selection days 2 and 3 (reads of this peptide / all reads for the bait, averaged over …"
10,chain 1 D11T,"0.000142 average fractional NGS count over selection days 2 and 3 (reads of this peptide / all reads for the bait, averaged over …"
11,chain 1 H2V,"0.00468 average fractional NGS count over selection days 2 and 3 (reads of this peptide / all reads for the bait, averaged over …"
12,chain 1 D11Y,"0.000538 average fractional NGS count over selection days 2 and 3 (reads of this peptide / all reads for the bait, averaged over …"
13,chain 1 A4T,"0.000121 average fractional NGS count over selection days 2 and 3 (reads of this peptide / all reads for the bait, averaged over …"
14,chain 1 H2W,"0.000523 average fractional NGS count over selection days 2 and 3 (reads of this peptide / all reads for the bait, averaged over …"
15,chain 1 E5A,"0.000481 average fractional NGS count over selection days 2 and 3 (reads of this peptide / all reads for the bait, averaged over …"
16,chain 1 A4E,"0.000667 average fractional NGS count over selection days 2 and 3 (reads of this peptide / all reads for the bait, averaged over …"
17,chain 1 T1G,"0.000168 average fractional NGS count over selection days 2 and 3 (reads of this peptide / all reads for the bait, averaged over …"
18,chain 1 L10I,"0.00104 average fractional NGS count over selection days 2 and 3 (reads of this peptide / all reads for the bait, averaged over …"
19,chain 1 D11L,"0.000447 average fractional NGS count over selection days 2 and 3 (reads of this peptide / all reads for the bait, averaged over …"
20,chain 1 H12P,"0.000332 average fractional NGS count over selection days 2 and 3 (reads of this peptide / all reads for the bait, averaged over …"
21,chain 1 H2S,"0.0241 average fractional NGS count over selection days 2 and 3 (reads of this peptide / all reads for the bait, averaged over …"
22,chain 1 L6F,"0.00096 average fractional NGS count over selection days 2 and 3 (reads of this peptide / all reads for the bait, averaged over …"
23,chain 1 H9V,"0.00147 average fractional NGS count over selection days 2 and 3 (reads of this peptide / all reads for the bait, averaged over …"
24,chain 1 T13D,"0.00412 average fractional NGS count over selection days 2 and 3 (reads of this peptide / all reads for the bait, averaged over …"

row,Variant,screen value
1,chain 1 D11M,"0.000791 average fractional NGS count over selection days 2 and 3 (reads of this peptide / all reads for the bait, averaged over …"
2,chain 1 E5T,"0.000518 average fractional NGS count over selection days 2 and 3 (reads of this peptide / all reads for the bait, averaged over …"
3,chain 1 G8Y,"0.00157 average fractional NGS count over selection days 2 and 3 (reads of this peptide / all reads for the bait, averaged over …"
4,chain 1 T1Y,"0.000395 average fractional NGS count over selection days 2 and 3 (reads of this peptide / all reads for the bait, averaged over …"
5,chain 1 T13M,"0.000376 average fractional NGS count over selection days 2 and 3 (reads of this peptide / all reads for the bait, averaged over …"
6,chain 1 F3Q,"0.000412 average fractional NGS count over selection days 2 and 3 (reads of this peptide / all reads for the bait, averaged over …"
7,chain 1 E5W,"0.00018 average fractional NGS count over selection days 2 and 3 (reads of this peptide / all reads for the bait, averaged over …"
8,chain 1 T13A,"0.00106 average fractional NGS count over selection days 2 and 3 (reads of this peptide / all reads for the bait, averaged over …"
9,chain 1 M14Y,"0.00313 average fractional NGS count over selection days 2 and 3 (reads of this peptide / all reads for the bait, averaged over …"
10,chain 1 H2D,"0.00139 average fractional NGS count over selection days 2 and 3 (reads of this peptide / all reads for the bait, averaged over …"
11,chain 1 M14W,"0.00207 average fractional NGS count over selection days 2 and 3 (reads of this peptide / all reads for the bait, averaged over …"
12,chain 1 M14D,"0.00118 average fractional NGS count over selection days 2 and 3 (reads of this peptide / all reads for the bait, averaged over …"
13,chain 1 M14N,"0.00152 average fractional NGS count over selection days 2 and 3 (reads of this peptide / all reads for the bait, averaged over …"
14,chain 1 E5D,"0.00488 average fractional NGS count over selection days 2 and 3 (reads of this peptide / all reads for the bait, averaged over …"
15,chain 1 T13Y,"0.00269 average fractional NGS count over selection days 2 and 3 (reads of this peptide / all reads for the bait, averaged over …"
16,chain 1 A4I,"0.000788 average fractional NGS count over selection days 2 and 3 (reads of this peptide / all reads for the bait, averaged over …"
17,chain 1 F15L,"0.0296 average fractional NGS count over selection days 2 and 3 (reads of this peptide / all reads for the bait, averaged over …"
18,chain 1 H9S,"0.00629 average fractional NGS count over selection days 2 and 3 (reads of this peptide / all reads for the bait, averaged over …"
19,chain 1 G8Q,"0.0015 average fractional NGS count over selection days 2 and 3 (reads of this peptide / all reads for the bait, averaged over …"
20,chain 1 H2Y,"0.000608 average fractional NGS count over selection days 2 and 3 (reads of this peptide / all reads for the bait, averaged over …"
21,chain 1 A4H,"0.00203 average fractional NGS count over selection days 2 and 3 (reads of this peptide / all reads for the bait, averaged over …"
22,chain 1 H9E,"0.00208 average fractional NGS count over selection days 2 and 3 (reads of this peptide / all reads for the bait, averaged over …"
23,chain 1 F15P,"0.00458 average fractional NGS count over selection days 2 and 3 (reads of this peptide / all reads for the bait, averaged over …"
24,chain 1 M14S,"0.00183 average fractional NGS count over selection days 2 and 3 (reads of this peptide / all reads for the bait, averaged over …"
